We go through two proteins from patent publication US20060246421.

B1: NS3 helicase (NS3h), wild type, hepatitis C virus (protein)
chain: AVDFVPVESMETTMRSPVFTDNSSPPAVPQTFQVAHLHAPTGSGKSTKVPAAYAAQGYKVLVLNPSVAATLGFGAYMSKAHGIDPNIRTGVRTITTGAPITYSTYGKFLADGGCSGGAYDIIICDECHSTDSTTILGIGTVLDQAETAGARLVVLATATPPGSVTVPHPNIEEVALSSTGEIPFYGKAIPIETIKGGRHLIFCHSKKKCDELAAKLSGLGLNAVAYYRGLDVSVIPTSGDVIVVATDALMTGFTGDFDSVIDCNTCVTQTVDFSLDPTFTIETTTVPQDAVSRSQRRGRTGRGRMGIYRFVTPGERPSGMFDSSVLCECYDAGCAWYELTPAETSVRLRAYLNTPGLPVCQDHLEFWESVFTGLTHIDAHFLSQTKQAGDNFPYLVAYQATVCARAQAPPPSWDQMWKCLIRLKPTLHGPTPLLYRLGAVQNEVTTTHPITKYIMACMSADLEVVT
Take B1: the “amplitude of single turnover DNA unwinding (processivity)” value was 0.35 ± 0.01 nM.

B2: NS3h KDA (D543K/H545D/Q549A mutant NS3 helicase) (protein)
chain: AVDFVPVESMETTMRSPVFTDNSSPPAVPQTFQVAHLHAPTGSGKSTKVPAAYAAQGYKVLVLNPSVAATLGFGAYMSKAHGIDPNIRTGVRTITTGAPITYSTYGKFLADGGCSGGAYDIIICDECHSTDSTTILGIGTVLDQAETAGARLVVLATATPPGSVTVPHPNIEEVALSSTGEIPFYGKAIPIETIKGGRHLIFCHSKKKCDELAAKLSGLGLNAVAYYRGLDVSVIPTSGDVIVVATDALMTGFTGDFDSVIDCNTCVTQTVDFSLDPTFTIETTTVPQDAVSRSQRRGRTGRGRMGIYRFVTPGERPSGMFDSSVLCECYDAGCAWYELTPAETSVRLRAYLNTPGLPVCQDHLEFWESVFTGLTHIKADFLSATKQAGDNFPYLVAYQATVCARAQAPPPSWDQMWKCLIRLKPTLHGPTPLLYRLGAVQNEVTTTHPITKYIMACMSADLEVVT
For the protein B2, the “amplitude of single turnover DNA unwinding (processivity)” value was 0.21 ± 0.01 nM.
